Drawing on patent publication US20250346638, this text covers activity for one substance.

This data set concerns TNF ATF 3 (synthetic construct). The experiment in a line: cell_activity. The settings on record: TNF ELISA about 100 pg/mL with CD3/CD28 Dynabeads vs shock; about 3-fold with stimulation cocktail and BFA (FIG. 15).
Chain of TNF ATF 3 (synthetic construct) (chain, as listed by the source): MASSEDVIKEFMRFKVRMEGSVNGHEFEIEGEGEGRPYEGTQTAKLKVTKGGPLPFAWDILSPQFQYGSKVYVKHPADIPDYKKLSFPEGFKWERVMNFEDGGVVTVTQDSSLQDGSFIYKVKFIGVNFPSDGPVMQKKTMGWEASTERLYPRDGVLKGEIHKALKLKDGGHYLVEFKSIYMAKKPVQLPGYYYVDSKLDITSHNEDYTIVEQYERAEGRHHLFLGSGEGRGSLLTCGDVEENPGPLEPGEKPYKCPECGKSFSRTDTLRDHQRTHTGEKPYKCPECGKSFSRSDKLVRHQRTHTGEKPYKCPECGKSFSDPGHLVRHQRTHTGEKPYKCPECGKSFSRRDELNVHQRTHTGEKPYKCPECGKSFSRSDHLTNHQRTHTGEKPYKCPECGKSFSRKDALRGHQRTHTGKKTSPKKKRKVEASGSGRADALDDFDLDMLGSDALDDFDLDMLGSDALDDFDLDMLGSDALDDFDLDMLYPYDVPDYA

TNF promoter ATF 3 target: the activity came out at 5 fold.
